# Test results from patent US20240018201A1.
# What was measured:
# [1] = biological target: human TNF alpha (Miltenyi, from yeast, Catalog no. 130-094) (human) (UniProt P01375); test: SPR, Biacore 8K
# [2] = biological target: Llama Anti-human LC-kappa VHH Single Domain Antibody [Biotin] (CAT #: NABG-118); test: BLI, biotinylated VHH ligand on streptavidin biosensor
# [3] = biological target: human TNF alpha (Miltenyi, from yeast, Catalog no. 130-094) (human) (UniProt P01375); test: SPR, Biacore 8K (column head prints nM; koff/kon gives this number in M)
# Chain of UniProt P01375 (P01375 77-233 limits assumed): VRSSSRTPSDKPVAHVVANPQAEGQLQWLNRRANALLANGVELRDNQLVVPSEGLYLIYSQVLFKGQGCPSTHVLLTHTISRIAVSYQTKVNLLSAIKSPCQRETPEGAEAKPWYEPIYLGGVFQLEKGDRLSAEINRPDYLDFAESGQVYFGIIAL
% KD to wildtype [1] [%],% koff to wildtype [1] [%],% kon to wildtype [1] [%],koff [1] [s⁻¹],kon [1] [M⁻¹ s⁻¹],% Response BLI of construct in comparison to wildtype (=% Binding to Kappa-ligand) [2] [%],Kd [3] [nM],Substance
99.4,96.1,96.1,0.000208,3.94e+06,1.66,0.0528,Adalimumab variant with Gln199Trp light chains (L234A/L235A Fc) (antibody)
110,90.5,90.5,0.000216,3.71e+06,12.5,0.0583,Adalimumab variant with Thr109Arg + Ser202Arg light chains (L234A/L235A Fc) (antibody)
–,–,–,–,–,100,0.0531,Adalimumab with WT light chain (no mutations) and L234A/L235A human IgG Fc variant (antibody)
104,92.7,92.7,0.00021,3.8e+06,7.87,0.0553,Adalimumab variant with His198Arg light chains (L234A/L235A Fc) (antibody)
